Experimental data published in article PMC4538837, “Structural basis for substrate recognition and processive cleavage mechanisms of the trimeric exonuclease PhoExo I”.

Molecular target: PhoExo I D80N (Pyrococcus horikoshii OT3, UniProt A0A060P168 1-229, D80N)
Test: X-ray crystal structure (1.95 A); Mg2+ (soaked), one at A metal site; EMSA: 25 mM Hepes-NaOH pH 7.5, 50 mM NaCl, 0.1 mM EDTA, 0.1 mg/ml BSA, 5 nM probe, 0-1600 nM trimer, 5 min 55 C, then 0.05% glutaraldehyde 10 min at room temperature; 7.5% native PAGE in TBE
Settings: protein: recombinant; tags: C-terminal 4xHis (mutants made from the CHis plasmid; crystal construct not detailed in the material); chain copies: 3; single strand; 3 copies per trimer

Sequence of PhoExo I D80N (A0A060P168 entry or part of it D80N | D80N D80N): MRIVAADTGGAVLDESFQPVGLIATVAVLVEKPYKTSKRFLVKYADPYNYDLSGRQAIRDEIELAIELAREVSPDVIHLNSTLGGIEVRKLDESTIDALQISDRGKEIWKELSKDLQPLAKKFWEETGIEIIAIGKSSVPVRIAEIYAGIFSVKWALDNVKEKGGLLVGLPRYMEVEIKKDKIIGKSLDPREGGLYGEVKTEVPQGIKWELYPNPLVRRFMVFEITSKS

B1: poly-dT 7 nt (ssDNA)
DNA: TTTTTTT
- binding result: binds
